Assays:
[1] = substrate: O=C(O)C[C@H](NC(=O)Cc1c[nH]c2ccccc12)C(=O)O; assay: HPLC of oxidised product, Michaelis-Menten; type: biochemical, Arabidopsis thaliana; conditions: 0.5 mM 2-oxoglutarate, 2 μM Fe(II), 5 mM ascorbate, 50 mM potassium phosphate pH 7.2, 30 °C
[2] = substrate: O=C(O)CC[C@H](NC(=O)Cc1c[nH]c2ccccc12)C(=O)O; assay: HPLC of oxidised product, Michaelis-Menten; type: biochemical, Arabidopsis thaliana; conditions: 0.5 mM 2-oxoglutarate, 2 μM Fe(II), 5 mM ascorbate, 50 mM potassium phosphate pH 7.2, 30 °C

B1: AtDAO1 (Arabidopsis thaliana) (protein)
chain: MGELNGVIIPTIDLEEVSDKILNQKIREASERWGCFRVINHGVSLSLMAEMKKTVIDLFQRPYEVKVRNTDVLLGSGYRAPNEINPYYEALGLYDMASPHAVNTFCDQLEASADQREIMVKYAKAINGLATDLARKLAESYGLVETDFFKEWPSQFRINKYHFKPETVGKLGVQLHTDSGFLTILQDDENVGGLEAMDNSSGTFFPIDPLPNTLAINLGDMATIWSNGRLCNVKHRVQCKEATMRYSIASFLLGPMDTDLEPPSEFVDAEHPRLYKPISHEGVRNIRMTKKLHDGEALKLITHAGLDK
notes: full-length ORF in pCold I, N-terminal His tag kept, E. coli BL21, TALON purified
[1]
  Km: 13.5 µM
[2]
  Km: 9.4 µM
